Test results reported in PMC10838372 (Journal of inherited metabolic disease, 2023).
Changes are numbered by the printed parent chain. Names may count otherwise.

B1: dihydroorotase (DHO) domain of human CAD, wild type (domain or fragment, UniProt P27708 1456-1846, looked up)
chain: MTSQKLVRLPGLIDVHVHLREPGGTHKEDFASGTAAALAGGITMVCAMPNTRPPIIDAPALALAQKLAEAGARCDFALFLGASSENAGTLGTVAGSAAGLKLYLNETFSELRLDSVVQWMEHFETWPSHLPIVAHAEQQTVAAVLMVAQLTQRSVHICHVARKEEILLIKAAKARGLPVTCEVAPHHLFLSHDDLERLGPGKGEVRPELGSRQDVEALWENMAVIDCFASDHAPHTLEEKCGSRPPPGFPGLETMLPLLLTAVSEGRLSLDDLLQRLHHNPRRIFHLPPQEDTYVEVDLEHEWTIPSHMPFSKAHWTPFEGQKVKGTVRRVVLRGEVAYIDGQVLVPPGYGQDVRKWPQGAVPQLPPSAPATSEMTTTPERPRRGIPGLPD
modifications: carboxylated lysine (KCX) at K1556
B2: DHO domain of human CAD, variant R1475Q (domain or fragment, UniProt P27708 1456-1846, looked up)
chain: B1 chain with R20Q
B3: DHO domain of human CAD, variant K1482M (domain or fragment, UniProt P27708 1456-1846, looked up)
chain: B1 chain with K27M
B4: DHO domain of human CAD, variant K1556T (domain or fragment, UniProt P27708 1456-1846, looked up)
chain: B1 chain with K101T
B5: DHO domain of human CAD, variant R1617Q (domain or fragment, UniProt P27708 1456-1846, looked up)
chain: B1 chain with R162Q
B6: DHO domain of human CAD, variant R1722W (domain or fragment, UniProt P27708 1456-1846, looked up)
chain: B1 chain with R267W
B7: DHO domain of human CAD, variant R1785C (domain or fragment, UniProt P27708 1456-1846, looked up)
chain: B1 chain with R330C
B8: DHO domain of human CAD, variant R1789Q (domain or fragment, UniProt P27708 1456-1846, looked up)
chain: B1 chain with R334Q
B9: DHO domain of human CAD, variant R1810Q (domain or fragment, UniProt P27708 1456-1846, looked up)
chain: B1 chain with R355Q

Target: the molecule itself
Assay: SEC

Protein	stoichiometry N
B1	2
B2	2
B3	2
B4	2
B5	2
B6	2
B7	2
B8	2
B9	2
